Each block holds one binder with its values, some of them ahead of it.
Target: human IL-12 receptor (IL-12Rβ1 and IL-12Rβ2) on HEK-Blue IL-12 cells (human, UniProt P42701 24-662; Q99665 24-862)
Assay: cell-based or functional assay

human IL-12 receptor (IL-12Rβ1 and IL-12Rβ2) on HEK-Blue IL-12 cells, sequence (Q99665 24-862, chain 2 of 2, other chains not shown): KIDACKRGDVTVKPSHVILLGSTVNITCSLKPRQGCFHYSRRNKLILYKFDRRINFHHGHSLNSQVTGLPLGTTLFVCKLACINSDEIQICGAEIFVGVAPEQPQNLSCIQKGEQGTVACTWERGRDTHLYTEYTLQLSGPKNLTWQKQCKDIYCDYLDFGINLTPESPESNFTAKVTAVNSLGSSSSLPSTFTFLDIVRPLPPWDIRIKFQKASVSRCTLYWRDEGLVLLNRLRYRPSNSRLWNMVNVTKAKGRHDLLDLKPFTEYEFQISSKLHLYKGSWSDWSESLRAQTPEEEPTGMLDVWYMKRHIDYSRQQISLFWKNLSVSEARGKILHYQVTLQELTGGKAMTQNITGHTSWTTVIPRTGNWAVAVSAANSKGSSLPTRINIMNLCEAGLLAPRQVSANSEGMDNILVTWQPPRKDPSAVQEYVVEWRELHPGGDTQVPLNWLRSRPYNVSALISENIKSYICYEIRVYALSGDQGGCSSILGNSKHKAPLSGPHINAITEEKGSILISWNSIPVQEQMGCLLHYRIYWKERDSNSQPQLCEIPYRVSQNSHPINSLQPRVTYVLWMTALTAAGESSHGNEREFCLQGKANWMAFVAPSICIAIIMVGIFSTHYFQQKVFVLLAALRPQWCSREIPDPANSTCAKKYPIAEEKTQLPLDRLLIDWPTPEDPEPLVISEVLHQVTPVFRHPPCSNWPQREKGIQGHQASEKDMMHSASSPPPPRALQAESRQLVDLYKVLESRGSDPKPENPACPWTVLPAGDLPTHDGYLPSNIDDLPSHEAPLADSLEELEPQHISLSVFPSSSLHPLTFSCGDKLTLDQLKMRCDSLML

Max Absorbance: 0.18
B3: DGL547 (bispecific antibody, V domains shown)
V domain 1: EVQLVESGGGLVQPGGSLRLSCAASGFTLDYYAIGWFRQAPGKEREGVSCISSSDRSTWYADSVKGRFTISRDNAKNTVYLQMHSLKPEDTAVYYCATPCYSDYDPEGYEYDYWGQGTQVTVEP
V domain 2: QLQLVESGGGLVQAGGSLRLSCAASGLTFSGYTVGWFRQAPGKEREFVAAINWSSAYTYSEFVKGRFTISRDNAKNTVYLQMSSLKPEDTAVYYCAAQRSRTSWYASTAEAYDYWGQGTQVTVEP

Max Absorbance: 0.21
B4: DGL525 (bispecific antibody, V domains shown)
V domain 1: EVQLVESGGGLVQPGGSLRLFCAASRSIFNINIMGWYRQAPGKQREWLASITSGGSTFYADSVKDRFTISRDSVKNTVYLQMNSLKPEDTAAYYCNRYRSVPLNTVYPWGQGTLVTVEP
V domain 2: QVQLVESGGGLVQAGGSLRLSCAASGRTFSSYAMGWFRQAPGKEREFVSAISWSGLSTYYVESVQGRFTISRDNAKNTVYLQMNSLKPEDTAVYYCAASRIYTNYVARSYEYDDWGQGTQVTVEP

Max Absorbance: 0.23
B5: DGL604 (bispecific antibody, V domains shown)
V domain 1: QVQLVESGGGLVQAGGSLRLSCAASRSISSFNEMAWYRQAPGEQRELVATIVSTVGFTNYADSVKGRFTISRDNAKNTVYLQMNSLKAEDTAVYYCNARRISTDYWGQGTQVTVEP
V domain 2: QLQLVESGGGLVQAGGSLRLSCAASGRTFGIHGMGWFRQAPGKEREFAAAIRWSDGTTIHADSVKGRLTISRDNAKNTVYLQMNSLKPEDTAVYYCAATSNPQFGRNWYTVAAGVEYGYWGQGTQVTVEP

Max Absorbance: 0.24
B8: DGL443 (bispecific antibody, human IgG1, lambda)
heavy 1: not shown
heavy 2: QVTLRESGPALVKPTQTLTLTCTFSGFSLSTSGMCVSWIRQPPGKALEWLALIYWDDDKYYSTSLKTRLTISKDTSKNQVVLTMTNMDPVDTATYYCARMRRGIEAFDIWGQGTMVTVFSASTKGPSVFPLAPSSKSTSGGTAALGCLVKDYFPEPVTVSWNSGALTSGVHTFPAVLQSSGLYSLSSVVTVPSSSLGTQTYICNVNHKPSNTKVDKKVEPKSCDKTHTCPPCPAPEAAGAPSVFLFPPKPKDTLMISRTPEVTCVVVDVSHEDPEVKFNWYVDGVEVHNAKTKPREEQYNSTYRVVSVLTVLHQDWLNGKEYKCKVSNKALPAPIEKTISKAKGQPREPQVCTLPPSRDELTKNQVSLSCAVKGFYPSDIAVEWESNGQPENNYKTTPPVLDSDGSFFLVSKLTVDKSRWQQGNVFSCSVMHEALHNRFTQKSLSLSPG
light: QSVLTQPPSVSGAPGQRVTISCTGSSSNIGAGYDVHWYQQLPGTAPKLLIFGYSNRPSGVPVRFSGSKSGTSASLAITGLLAEDEADFYCQSFDISLTGWVFGGGTKLTVLGQPKAAPSVTLFPPSSEELQANKATLVCLISDFYPGAVTVAWKADSSPVKAGVETTTPSKQSNNKYAASSYLSLTPEQWKSHRSYSCQVTHEGSTVEKTVAPTECS

Max Absorbance: 0.22
B9: DGL442 (bispecific antibody, human IgG1, lambda)
heavy 1: not shown
heavy 2: QVHLQESGPGLVKPSETLSLTCTVSGGSISYYYWNWIRQPPGKGLEWIASIYNSGNINYNPSLKSRVTISVDTSKNQFSLKLTSVTAADTAVYYCARGGYSYGYFDNWGQGILVTVSSASTKGPSVFPLAPSSKSTSGGTAALGCLVKDYFPEPVTVSWNSGALTSGVHTFPAVLQSSGLYSLSSVVTVPSSSLGTQTYICNVNHKPSNTKVDKKVEPKSCDKTHTCPPCPAPEAAGAPSVFLFPPKPKDTLMISRTPEVTCVVVDVSHEDPEVKFNWYVDGVEVHNAKTKPREEQYNSTYRVVSVLTVLHQDWLNGKEYKCKVSNKALPAPIEKTISKAKGQPREPQVCTLPPSRDELTKNQVSLSCAVKGFYPSDIAVEWESNGQPENNYKTTPPVLDSDGSFFLVSKLTVDKSRWQQGNVFSCSVMHEALHNRFTQKSLSLSPG
light: SYELTQPPSVSVSPGQTASITCSGRELGNKYAYWYQQKPGQSPVLVIYEDYKRPSGIPERFSGSNSGNTATLTISGTQAMDEADYYCQAWDSSTVIFGGGTKLTVLGQPKAAPSVTLFPPSSEELQANKATLVCLISDFYPGAVTVAWKADSSPVKAGVETTTPSKQSNNKYAASSYLSLTPEQWKSHRSYSCQVTHEGSTVEKTVAPTECS

Further lines, the binder ahead of its results:

B1: DGL440 (bispecific antibody, human IgG1, lambda)
heavy 1: not shown
heavy 2: QVQLVQPGAEVKKPGASVKVSCKASGYTFTGYYMHWVRQAPGQGLEWMGWINPKSGGTNYAQKFQGRVTMTRDTSISTAYMELTRLRSDDTAVYYCARDQGYGDYVLKHWGQGTLVTVSSASTKGPSVFPLAPSSKSTSGGTAALGCLVKDYFPEPVTVSWNSGALTSGVHTFPAVLQSSGLYSLSSVVTVPSSSLGTQTYICNVNHKPSNTKVDKKVEPKSCDKTHTCPPCPAPEAAGAPSVFLFPPKPKDTLMISRTPEVTCVVVDVSHEDPEVKFNWYVDGVEVHNAKTKPREEQYNSTYRVVSVLTVLHQDWLNGKEYKCKVSNKALPAPIEKTISKAKGQPREPQVCTLPPSRDELTKNQVSLSCAVKGFYPSDIAVEWESNGQPENNYKTTPPVLDSDGSFFLVSKLTVDKSRWQQGNVFSCSVMHEALHNRFTQKSLSLSPG
light: SYVLTQPPSVSVAPGQTARITCGGDNIGSKSVHWYQQKPGQAPVPVVYDDSDRPSGIPERFSGSNSGNTATLTISRVEAGDEADYYCQVWDSSSDHVVFGGGTKLTVLGQPKAAPSVTLFPPSSEELQANKATLVCLISDFYPGAVTVAWKADSSPVKAGVETTTPSKQSNNKYAASSYLSLTPEQWKSHRSYSCQVTHEGSTVEKTVAPTECS
Max Absorbance: 0.22

B2: DGL425 (bispecific antibody, human IgG1, kappa)
heavy 1: not shown
heavy 2: EVQLVQSGTEVKKPGESLKISCKGSGYSFTSYWIGWVRQMPGKGLEWMGNIYPGDSDTRYSPSFQGHVTISADKSISTAYLQWSSLKASDTAMYYCARRGGGYWGQGTLVTVSSASTKGPSVFPLAPSSKSTSGGTAALGCLVKDYFPEPVTVSWNSGALTSGVHTFPAVLQSSGLYSLSSVVTVPSSSLGTQTYICNVNHKPSNTKVDKKVEPKSCDKTHTCPPCPAPEAAGAPSVFLFPPKPKDTLMISRTPEVTCVVVDVSHEDPEVKFNWYVDGVEVHNAKTKPREEQYNSTYRVVSVLTVLHQDWLNGKEYKCKVSNKALPAPIEKTISKAKGQPREPQVCTLPPSRDELTKNQVSLSCAVKGFYPSDIAVEWESNGQPENNYKTTPPVLDSDGSFFLVSKLTVDKSRWQQGNVFSCSVMHEALHNRFTQKSLSLSPG
light: not shown
Max Absorbance: 0.19

B6: DGL415 (bispecific antibody, human IgG1, kappa)
heavy 1: not shown
heavy 2: QVQLVESGGGLVQAGGSLRLSCAASGRTFSRYRMGWFRQAPGKEREFVAAITKSGATTYDADSVKGRFTISRDNAKNTLYLQMNSLKPEDTAVYYCAASYHSNWWPKNADEYAYWGQGTQVTVEPKSSDKTHTCPPCPAPEAAGAPSVFLFPPKPKDTLMISRTPEVTCVVVDVSHEDPEVKFNWYVDGVEVHNAKTKPREEQYNSTYRVVSVLTVLHQDWLNGKEYKCKVSNKALPAPIEKTISKAKGQPREPQVCTLPPSRDELTKNQVSLSCAVKGFYPSDIAVEWESNGQPENNYKTTPPVLDSDGSFFLVSKLTVDKSRWQQGNVFSCSVMHEALHNRFTQKSLSLSPG
light: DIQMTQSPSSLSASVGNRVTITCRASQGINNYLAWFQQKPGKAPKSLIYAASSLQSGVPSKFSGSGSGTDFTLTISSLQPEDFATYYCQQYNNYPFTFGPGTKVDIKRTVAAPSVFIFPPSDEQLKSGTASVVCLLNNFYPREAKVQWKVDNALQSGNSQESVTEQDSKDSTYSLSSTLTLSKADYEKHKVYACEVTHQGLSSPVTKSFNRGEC
Max Absorbance: 0.23

B7: DGL400 (bispecific antibody, human IgG1, kappa)
heavy 1: not shown
heavy 2: B6 heavy 2
light: DIQLTQSPSFLSASVGDRVTITCRASQGISSYLAWYQQKPGKAPKVLIYAASTLQSGVPSRFSGSGSGTEFTLTISSLLPEDFATYFCQQLHRYPYTFGQGAKLEIKRTVAAPSVFIFPPSDEQLKSGTASVVCLLNNFYPREAKVQWKVDNALQSGNSQESVTEQDSKDSTYSLSSTLTLSKADYEKHKVYACEVTHQGLSSPVTKSFNRGEC
Max Absorbance: 0.21

B10: DGL430 (bispecific antibody, human IgG1, lambda)
heavy 1: not shown
heavy 2: B9 heavy 2
light: B9 light
Max Absorbance: 0.21

B11: DGL427 (bispecific antibody, human IgG1, kappa)
heavy 1: not shown
heavy 2: EVLLVESGGGLVKPGGSLRLSCAASGFTFSSYSMNWVRQAPGKGLEWVSSISSSSDYIHYADSVRGRFTISRDNAKNSLYLQMNSLRAEDTAVYYCARSELGFDYWGQGTLVTVSSASTKGPSVFPLAPSSKSTSGGTAALGCLVKDYFPEPVTVSWNSGALTSGVHTFPAVLQSSGLYSLSSVVTVPSSSLGTQTYICNVNHKPSNTKVDKKVEPKSCDKTHTCPPCPAPEAAGAPSVFLFPPKPKDTLMISRTPEVTCVVVDVSHEDPEVKFNWYVDGVEVHNAKTKPREEQYNSTYRVVSVLTVLHQDWLNGKEYKCKVSNKALPAPIEKTISKAKGQPREPQVCTLPPSRDELTKNQVSLSCAVKGFYPSDIAVEWESNGQPENNYKTTPPVLDSDGSFFLVSKLTVDKSRWQQGNVFSCSVMHEALHNRFTQKSLSLSPG
light: DIQMTQSPSSVSASVGDRVTITCRASQGISIWLAWYQQKPGKAPKPLIYAASSLQSGVPSRFSGSGSGTDFTLTISSLQPEDFATYYCQQANSFPLTFGGGTKVEIKRTVAAPSVFIFPPSDEQLKSGTASVVCLLNNFYPREAKVQWKVDNALQSGNSQESVTEQDSKDSTYSLSSTLTLSKADYEKHKVYACEVTHQGLSSPVTKSFNRGEC
Max Absorbance: 0.25

B12: DGL407 (bispecific antibody, human IgG1, kappa)
heavy 1: not shown
heavy 2: QVQLVESGGGLVRPGGSLRLSCAASGFTFSSNGMHWFRQAPGKGLEWVSSIGSGGTSIYYADSVKGRFTISRDNAKNTLYLQMNSLKSDDTAVYYCSKEVTGATRGQGTQVTVEPKSSDKTHTCPPCPAPEAAGAPSVFLFPPKPKDTLMISRTPEVTCVVVDVSHEDPEVKFNWYVDGVEVHNAKTKPREEQYNSTYRVVSVLTVLHQDWLNGKEYKCKVSNKALPAPIEKTISKAKGQPREPQVCTLPPSRDELTKNQVSLSCAVKGFYPSDIAVEWESNGQPENNYKTTPPVLDSDGSFFLVSKLTVDKSRWQQGNVFSCSVMHEALHNRFTQKSLSLSPG
light: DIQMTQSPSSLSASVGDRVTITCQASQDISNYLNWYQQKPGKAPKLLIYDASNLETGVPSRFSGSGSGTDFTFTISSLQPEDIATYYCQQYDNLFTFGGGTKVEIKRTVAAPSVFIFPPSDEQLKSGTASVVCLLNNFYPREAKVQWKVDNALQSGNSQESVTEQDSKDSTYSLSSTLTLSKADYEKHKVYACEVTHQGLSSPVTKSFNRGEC
Max Absorbance: 0.17

Reference: patent publication US20250019450A1 (DIAGONAL THERAPEUTICS, published 2025)
